US20150044214A1 (Hoffmann-La Roche, published 2015)

Molecular target: T1, human VEGF-A (human, UniProt P15692-4 27-191)
T1 construct: ELISA methods name 'full-length VEGF165-His protein (R&D Systems)'; Biacore methods name rhVEGF (R&D Systems Cat. No. 293-VE); also called VEGF165; VEGF165-His
Test: ELISA and Biacore (SPR), incl. simultaneous binding (bridging ELISA, sandwich SPR)

T1 sequence (P15692 other isoform, or with tags, fused parts or gaps limits assumed): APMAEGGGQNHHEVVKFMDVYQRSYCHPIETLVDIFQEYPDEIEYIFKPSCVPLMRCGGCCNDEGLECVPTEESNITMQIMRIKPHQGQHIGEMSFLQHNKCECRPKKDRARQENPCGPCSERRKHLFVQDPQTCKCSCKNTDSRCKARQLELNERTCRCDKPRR

B1: bispecific, tetravalent antigen binding protein recognizing Ang-2 and VEGF-A (bispecific antibody, human IgG1, kappa)
heavy 1: not shown
light 1: QPGLTQPPSVSVAPGQTARITCGGNNIGSKSVHWYQQKPGQAPVLVVYDDSDRPSGIPERFSGSNSGNTATLTISRVEAGDEADYYCQVWDSSSDHYVFGTGTKVTVLRTVAAPSVFIFPPSDEQLKSGTASVVCLLNNFYPREAKVQWKVDNALQSGNSQESVTEQDSKDSTYSLSSTLTLSKADYEKHKVYACEVTHQGLSSPVTKSFNRGEC
heavy 2: not shown
light 2: DIQMTQSPSSLSASVGDRVTITCSASQDISNYLNWYQQKPGKAPKVLIYFTSSLHSGVPSRFSGSGSGTDFTLTISSLQPEDFATYYCQQYSTVPWTFGQGTKVEIKSSASTKGPSVFPLAPSSKSTSGGTAALGCLVKDYFPEPVTVSWNSGALTSGVHTFPAVLQSSGLYSLSSVVTVPSSSLGTQTYICNVNHKPSNTKVDKKVEPKSC
notes: Expressed transiently in HEK293F cells; also called bispecific tetravalent <VEGF-Ang-2> antibody; <Ang-2, VEGF> bispecific tetravalent antibody
B1: binds.
